Laboratory results reported in publication PMC11906491.

Each substance was assayed against neonatal FcR (FcRn) (UniProt P55899) (assay: BLI + SPR).
Chain of UniProt P55899 (P55899 24-365): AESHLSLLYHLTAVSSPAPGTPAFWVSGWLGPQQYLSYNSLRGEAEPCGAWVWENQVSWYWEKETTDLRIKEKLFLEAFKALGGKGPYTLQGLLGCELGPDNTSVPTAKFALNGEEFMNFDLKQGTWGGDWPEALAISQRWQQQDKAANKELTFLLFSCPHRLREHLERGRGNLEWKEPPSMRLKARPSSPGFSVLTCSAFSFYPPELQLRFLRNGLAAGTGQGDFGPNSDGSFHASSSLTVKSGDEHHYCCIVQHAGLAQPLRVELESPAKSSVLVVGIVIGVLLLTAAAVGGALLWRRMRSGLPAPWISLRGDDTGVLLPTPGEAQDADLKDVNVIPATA
BAT1806/BIIB800 (antibody) was tested, and the Relative FcRn affinity (%) was 104%. With forced deamidation TCZ (antibody) the Relative FcRn affinity (%) was 100%. In the case of reference tocilizumab (antibody), the Relative FcRn affinity (%) is reported as 96%.
